# Test results from US20220125824A1.
# Target: mCherry-MazF (E. coli MazF ribonuclease fused to the C terminus of mCherry) (E. coli) (UniProt P0AE70)
# Assay: cell-based or functional assay
# Sequence of UniProt P0AE70 (P0AE70 whole entry, the tested form may be a part): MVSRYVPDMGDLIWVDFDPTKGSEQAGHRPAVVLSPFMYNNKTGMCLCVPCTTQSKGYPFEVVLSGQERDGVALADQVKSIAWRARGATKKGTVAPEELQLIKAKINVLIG
substance,measurement,value
E. coli antitoxin MazE (from UniProt P0AE72 1-82),mortality (MTT assay) of lung cancer cells co-infected with MazF and MazE viruses at a 1:0.5 MOI ratio,36%
same,"yield of MazF-encoding adenovirus in HEK293 packaging cells that constitutively express MazE, compared with parental HEK293 cells (orders of magnitude)",2
